Source: the supplement of paper PMC10126150
± gives the standard deviation of the averaged measurements.
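Also: ATP exposure 15 min at 22 °C before imaging.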

These sequences were tested on ATP (assay: switch fluorescence ratio, 500 uM ATP over buffer (Cy3 cluster intensity, sum of 5 cycles each) (fold (ratio)); higher = stronger signal-on switching upon ATP binding; sequences stand for … in TCGTCGGCAGCGTCAGATGTGTATAAGAGACAGTTTTTTTTTTTTTTTTTTTTTTTTT…TC). Conditions: aptamer strand: ATP DNA aptamer (quencher-CACCTGGGGGAGTATTGCGGAGGAAGG + anchor), 100 nM annealed; ATP concentration: 500 uM.
Method in brief: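 Clusters with intensities outside 100-1000 RFU were excluded. The remaining Cy3-labelled switching-strand clusters on a modified Illumina MiSeq flow-cell had been annealed to 100 nM quencher-labelled ATP aptamer and imaged in selection buffer, then after 15 min with 500 uM ATP at 22 °C, for five cycles separated by NaOH stripping and re-annealing. The fluorescence ratio, averaged per switch-domain sequence, is each cluster's summed target-cycle Cy3 intensity over its summed buffer-cycle Cy3 intensity.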
With GAGGATGTTA the switch fluorescence ratio was 1.03 ± 0.036. With TTTAGGTGTT the switch fluorescence ratio was 1.05 ± 0.074. Sequence AGGACAAATC has a switch fluorescence ratio of 0.985 ± 0.026. Work on GGGATATCAG yielded a switch fluorescence ratio of 0.994 ± 0.017. In the case of CGGTAGTCGA, the switch fluorescence ratio is reported as 1.02 ± 0.052. In the case of AGAATAATAG, the switch fluorescence ratio is reported as 1.02 ± 0.026. For AGCTACCTTC, the switch fluorescence ratio was 1.42 ± 0.041. GCAAAACGTA was tested, and the switch fluorescence ratio was 1.012 ± 0.009. AAGATCTGCC was tested, and the switch fluorescence ratio was 1.04 ± 0.021. In the case of GAACATTTCG, the switch fluorescence ratio is reported as 1 ± 0.021. GAAGTTTCTA gave a switch fluorescence ratio of 0.999 ± 0.0069. With GTTGCATCGA the switch fluorescence ratio was 1.02 ± 0.046. Work on CTTTACGGGC yielded a switch fluorescence ratio of 1.02 ± 0.038. GCTTCTATGC was tested, and the switch fluorescence ratio was 1.02 ± 0.037. For ATTTAGGTTA, the switch fluorescence ratio was 0.989 ± 0.021. AAGGGAAATT gave a switch fluorescence ratio of 0.983 ± 0.025. AAGGTTTCGG showed a switch fluorescence ratio of 0.985 ± 0.038. In the case of AGGTTCTTA, the switch fluorescence ratio is reported as 0.994 ± 0.06. CGCGATCGCG gave a switch fluorescence ratio of 0.994 ± 0.055. With CGAATTAGGT the switch fluorescence ratio was 1.03 ± 0.019. Sequence TCATCGGGG has a switch fluorescence ratio of 0.947 ± 0.027. AGGGTAGATT showed a switch fluorescence ratio of 0.977 ± 0.054. GTTAGGGGGA was tested, and the switch fluorescence ratio was 1 ± 0.011. GTGGGAGATA was tested, and the switch fluorescence ratio was 1.01 ± 0.038. With TGATGGTATA the switch fluorescence ratio was 1.01 ± 0.025. AAAACTTTTT showed a switch fluorescence ratio of 1.04 ± 0.051. In the case of CGAGGGTTGG, the switch fluorescence ratio is reported as 1.02 ± 0.018. With TCCAGGGTTA the switch fluorescence ratio was 1.031 ± 0.0058. With AAGGCTGTCT the switch fluorescence ratio was 1.02 ± 0.049. In the case of CAAAAGGCAG, the switch fluorescence ratio is reported as 0.984 ± 0.048. AGGATACTTT gave a switch fluorescence ratio of 0.9793 ± 0.0038. In the case of ATTTTGCTCT, the switch fluorescence ratio is reported as 1.02 ± 0.026. With GGTCAAGGGG the switch fluorescence ratio was 0.9826 ± 0.0088. In the case of TGCACAAGAT, the switch fluorescence ratio is reported as 1.02 ± 0.011. Sequence GCGGTTCCTG has a switch fluorescence ratio of 0.9829 ± 0.0076. Sequence AAGACGCTAA has a switch fluorescence ratio of 1.18 ± 0.026. Sequence CGGGAAGTTT has a switch fluorescence ratio of 0.999 ± 0.032. In the case of TTTCGGGCGC, the switch fluorescence ratio is reported as 1.05 ± 0.047. Sequence GGGACTTTCT has a switch fluorescence ratio of 1.01 ± 0.0092. ATCGGTATCC showed a switch fluorescence ratio of 1.035 ± 0.0064. With GGCTGGGGCT the switch fluorescence ratio was 0.973 ± 0.026. In the case of TAGGATGGGC, the switch fluorescence ratio is reported as 1.04 ± 0.04. CATATTGAAT gave a switch fluorescence ratio of 1.01 ± 0.02. For TTAAAGGGGC, the switch fluorescence ratio was 1.03 ± 0.06. ATTTGCTGTG was tested, and the switch fluorescence ratio was 0.9916 ± 0.0062. CATTTTATAA was tested, and the switch fluorescence ratio was 0.999 ± 0.014. Work on CGGGTGAGCT yielded a switch fluorescence ratio of 1.11 ± 0.16. TTTGGTACAC showed a switch fluorescence ratio of 1.01 ± 0.021. Work on CTATGATTTA yielded a switch fluorescence ratio of 0.975 ± 0.027. GGCCGGGGTA gave a switch fluorescence ratio of 1 ± 0.046. GCAGTGAGGG showed a switch fluorescence ratio of 0.991 ± 0.028. Sequence TTTGATATGT has a switch fluorescence ratio of 0.996 ± 0.039. TGTTTGAAAT gave a switch fluorescence ratio of 0.998 ± 0.034. In the case of ATTCGTTGTT, the switch fluorescence ratio is reported as 0.997 ± 0.01. Sequence CCCCTCGAGG has a switch fluorescence ratio of 0.966 ± 0.049. Work on TGTAATCCGC yielded a switch fluorescence ratio of 1.28 ± 0.021. GGTTTTGGCG was tested, and the switch fluorescence ratio was 1 ± 0.061. GATTTTGTAC showed a switch fluorescence ratio of 1.012 ± 0.0043. For TGGATGCATT, the switch fluorescence ratio was 1.03 ± 0.015. GGGAAGGGAG was tested, and the switch fluorescence ratio was 0.983 ± 0.028. Sequence CGGATGTGTA has a switch fluorescence ratio of 1.002 ± 0.01. GTTCTGAAGG was tested, and the switch fluorescence ratio was 1.02 ± 0.0029. TCTAATGAGG gave a switch fluorescence ratio of 1.006 ± 0.0063. AAAAGACGTT was tested, and the switch fluorescence ratio was 1 ± 0.029. CACGGACAGC showed a switch fluorescence ratio of 1.41 ± 0.025. GCCAATGGGC was tested, and the switch fluorescence ratio was 1 ± 0.051. GCTTAATCAG gave a switch fluorescence ratio of 0.988 ± 0.022. AGTGGGTTCA was tested, and the switch fluorescence ratio was 0.9842 ± 0.0034. Sequence TTAGTGGAAT has a switch fluorescence ratio of 0.9552 ± 0.0073. TGAATTATAG was tested, and the switch fluorescence ratio was 1 ± 0.015. In the case of TTTATGTATG, the switch fluorescence ratio is reported as 1.02 ± 0.034. TGTTTGTTCT was tested, and the switch fluorescence ratio was 0.976 ± 0.014. With TAGTGTTGGG the switch fluorescence ratio was 0.9837 ± 0.0015. In the case of TGATTGACGG, the switch fluorescence ratio is reported as 0.975 ± 0.015. CGAGTCCATC was tested, and the switch fluorescence ratio was 0.955 ± 0.012. CGGTCACGCG was tested, and the switch fluorescence ratio was 0.972 ± 0.039. CTGATGGTAG was tested, and the switch fluorescence ratio was 1.01 ± 0.015. For ATCTCTTTTA, the switch fluorescence ratio was 0.954 ± 0.0099. For TCGGCACCGG, the switch fluorescence ratio was 1.02 ± 0.024. TTGTTAATTT gave a switch fluorescence ratio of 1.02 ± 0.05. Work on ACGTTAAGTG yielded a switch fluorescence ratio of 1 ± 0.011. Work on CTTGTGAGTT yielded a switch fluorescence ratio of 0.979 ± 0.016. ATATGGGTAC was tested, and the switch fluorescence ratio was 1.034 ± 0.0052. TTGTAAGTGG gave a switch fluorescence ratio of 0.97 ± 0.0078. For AATATAGATG, the switch fluorescence ratio was 0.9885 ± 0.007. Work on GGATGTGAAA yielded a switch fluorescence ratio of 0.9851 ± 0.0046. Work on CTGGTTTTGC yielded a switch fluorescence ratio of 0.998 ± 0.022. GCTGTTCATG gave a switch fluorescence ratio of 0.993 ± 0.015. TATAGGGACA was tested, and the switch fluorescence ratio was 1.2 ± 0.03. In the case of TTAAGAGTTA, the switch fluorescence ratio is reported as 1.006 ± 0.01. TAAGCCGCGT gave a switch fluorescence ratio of 1.008 ± 0.0083. TGAGGGGGTT showed a switch fluorescence ratio of 0.997 ± 0.049. GCAAACTCTG was tested, and the switch fluorescence ratio was 1.12 ± 0.15. In the case of GTTTTTTGAG, the switch fluorescence ratio is reported as 1 ± 0.046. GCACGTGCGT gave a switch fluorescence ratio of 1.02 ± 0.035. TTACTGGATA gave a switch fluorescence ratio of 0.987 ± 0.046. For GAGCTCGTGG, the switch fluorescence ratio was 1.03 ± 0.051. For CTGAATATGA, the switch fluorescence ratio was 1 ± 0.065. GAACTGAGTC was tested, and the switch fluorescence ratio was 1.01 ± 0.046. Work on TTCATGAGTG yielded a switch fluorescence ratio of 0.9696 ± 0.0051. TATGTTGCGT gave a switch fluorescence ratio of 0.9975 ± 0.0078. AGTCTGAGCG was tested, and the switch fluorescence ratio was 1.03 ± 0.024. For AGAACCTAGT, the switch fluorescence ratio was 0.996 ± 0.031. In the case of ATAAAAAGTT, the switch fluorescence ratio is reported as 0.984 ± 0.034. Work on CGCTACGGAG yielded a switch fluorescence ratio of 1.02 ± 0.029. With CTCGGAGGGA the switch fluorescence ratio was 0.985 ± 0.04. GCATGAGGTG gave a switch fluorescence ratio of 1.08 ± 0.021. In the case of TATTTATCTG, the switch fluorescence ratio is reported as 1.02 ± 0.019. GGGGGATTAA was tested, and the switch fluorescence ratio was 1 ± 0.017. GGGGGAACTT showed a switch fluorescence ratio of 0.977 ± 0.032. For TAGATCCTTT, the switch fluorescence ratio was 1.03 ± 0.027. TCCGTTGGTG showed a switch fluorescence ratio of 1.01 ± 0.072. CTTGAAACGT showed a switch fluorescence ratio of 0.992 ± 0.076. TGTTACGATA showed a switch fluorescence ratio of 1.1181 ± 0.00041. TGAAAAAGG gave a switch fluorescence ratio of 0.982 ± 0.019. With TAGTAAGTTT the switch fluorescence ratio was 0.998 ± 0.012. Work on GGTCGGGTAC yielded a switch fluorescence ratio of 0.9676 ± 0.0094. CCTAAATTTT was tested, and the switch fluorescence ratio was 1.01 ± 0.024. GATGTTTGGA was tested, and the switch fluorescence ratio was 1.014 ± 0.0049. GGAATATTGG gave a switch fluorescence ratio of 1.02 ± 0.019. Work on CTTGTTGATT yielded a switch fluorescence ratio of 1.009 ± 0.0056. GAGGGTATTA showed a switch fluorescence ratio of 1.02 ± 0.019. Sequence ATGTTATAGA has a switch fluorescence ratio of 0.986 ± 0.034. For GGGCTCTAAA, the switch fluorescence ratio was 1 ± 0.018. Sequence AAAGGAATTT has a switch fluorescence ratio of 1.12 ± 0.19. Sequence CTAATTTGGT has a switch fluorescence ratio of 1.01 ± 0.016. Work on GTTCTATGGT yielded a switch fluorescence ratio of 0.998 ± 0.022. For TTTAGGTGTA, the switch fluorescence ratio was 0.985 ± 0.02. In the case of CTAGTCAATC, the switch fluorescence ratio is reported as 1.7 ± 0.072. Work on TGTGAGGCGT yielded a switch fluorescence ratio of 0.993 ± 0.0036. For GCTCTGAGTG, the switch fluorescence ratio was 1.013 ± 0.0075. ATTAAATAGC showed a switch fluorescence ratio of 1.03 ± 0.043. GACTGATTGG showed a switch fluorescence ratio of 1.02 ± 0.012. TTAAGAAAAA was tested, and the switch fluorescence ratio was 1.01 ± 0.016. Sequence ATGCACACCG has a switch fluorescence ratio of 1.087 ± 0.0016. Work on AATCCTGGCG yielded a switch fluorescence ratio of 1.01 ± 0.032. In the case of GGTCTTCTTT, the switch fluorescence ratio is reported as 0.994 ± 0.029. With GGATAATGCT the switch fluorescence ratio was 0.9597 ± 0.0094. In the case of AAGGAAAACG, the switch fluorescence ratio is reported as 0.969 ± 0.021. Work on ATGGTGTGG yielded a switch fluorescence ratio of 1.02 ± 0.074. In the case of TATCGGTCGG, the switch fluorescence ratio is reported as 0.98 ± 0.021. Work on CTTTGGGGCG yielded a switch fluorescence ratio of 1.01 ± 0.044. With AAGCGACTCG the switch fluorescence ratio was 1.006 ± 0.0056. In the case of TTGGGGATCG, the switch fluorescence ratio is reported as 0.983 ± 0.056. AGTTAGGTAG showed a switch fluorescence ratio of 0.9939 ± 0.0081. CGCTGTTGGT showed a switch fluorescence ratio of 0.9997 ± 0.0098. In the case of GCCTTAGGGT, the switch fluorescence ratio is reported as 1.015 ± 0.0029. Work on TTTCATTCTT yielded a switch fluorescence ratio of 1 ± 0.033. With CTTTTTATGA the switch fluorescence ratio was 1.01 ± 0.027. With GTGTTGGGGT the switch fluorescence ratio was 0.986 ± 0.02. Work on GAATAATTGG yielded a switch fluorescence ratio of 0.996 ± 0.015. GGGTGCGCGT was tested, and the switch fluorescence ratio was 0.977 ± 0.011. Sequence TTCTAATGGT has a switch fluorescence ratio of 1.01 ± 0.073. Work on ATGTTTTTCG yielded a switch fluorescence ratio of 0.9718 ± 0.0029. ATGATGTCGG gave a switch fluorescence ratio of 1.03 ± 0.033. For ACGGCAGTGA, the switch fluorescence ratio was 1.0394 ± 0.00012. For TCTGTGATCT, the switch fluorescence ratio was 1.01 ± 0.021.
